Our source for the Kd values is publication PMC8169611.

For the experiment, the target named is mouse proIGF2 (insulin-like growth factor 2 pro-hormone) (mouse). The experiment is described as follows: fluorescence polarisation. In general terms: Fluorescence polarisation rises when a labelled molecule tumbles more slowly, as on binding a larger partner.

As usually defined, the Kd is the free concentration of one partner at which half of the binding sites on the other are occupied at equilibrium, for simple one-to-one binding. Turning to “mouse proIGF2 (insulin-like growth factor 2 pro-hormone) (natural protein)”, the Kd is 2.98 µM.
